This assay concerns the target HLA-A*02:01 (Homo sapiens, UniProt P04439, D140Y/D185E/D98H/E176V/E277Q/G131W/G231S/I119V/I121R/I166T/I218V/L300P/L318F/N151K/N90K/P208A/P217A/Q86G/Q94H/R138H/R169H/T345S). Briefly: MHC binding assay (UV-ligand exchange, beta2m ELISA). The settings on record: binding of HLA-class I restricted peptides to HLA-A*02:01, β2m ELISA. An outline of the steps:
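UV-exchange pMHC monomers, 100-fold diluted → streptavidin capture 1 h 37 °C → HRP anti-β2m 2 ug/ml 1 h 37 °C → TMB, A450. Yield from HLA-A*02:01/MLA-001 monomer standard curve, 15-500 ng/ml. Only stably bound peptides keep β2m-containing complexes intact.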
In general terms: In an ELISA, binding on a coated surface is turned into a signal by an enzyme label.
Turning to “131 (LQALEVLKI; listed as Homo sapiens) [compound 131]”, the “Peptide Exchange (MHC class I binding score, peptide exchange yield)” value (from here on “Peptide Exchange”) is ““+” (≥10% = +)”.

On to “132 (LVYEAIIMV; listed as Homo sapiens) [compound 132]”, for which the “Peptide Exchange” value is recorded as ““+++” (≥50 = +++)”.

With “133 (YLLSGDISEA; listed as Homo sapiens) [compound 133]”, the “Peptide Exchange” value is given as ““+++” (≥50 = +++)”.

In the case of “134 (MLLEHGITLV; listed as Homo sapiens) [compound 134]”, the “Peptide Exchange” value is ““++++” (≥75% = ++++)”.

As for “135 (MTAGFSTIAGSV; listed as Homo sapiens) [compound 135]”, the “Peptide Exchange” value is recorded as ““+” (≥10% = +)”.

For “136 (NLDKLWTLV; listed as Homo sapiens) [compound 136]”, the “Peptide Exchange” value is given as ““++” (≥20% = ++)”.

Take “137 (NLIKTVIKL; listed as Homo sapiens) [compound 137]”: the “Peptide Exchange” value is listed as ““+++” (≥50 = +++)”.

With “138 (NLLDIDAPVTV; listed as Homo sapiens) [compound 138]”, the “Peptide Exchange” value is ““+++” (≥50 = +++)”.

Turning to “139 (NLTDVVEKL; listed as Homo sapiens) [compound 139]”, the “Peptide Exchange” value was ““+++” (≥50 = +++)”.

On to “140 (QIAELPATSV; listed as Homo sapiens) [compound 140]”, for which the “Peptide Exchange” value was ““+++” (≥50 = +++)”.

Take “141 (QILSEIVEA; listed as Homo sapiens) [compound 141]”: the “Peptide Exchange” value is ““++” (≥20% = ++)”.

For the substance “142 (QLDEPAPQV; listed as Homo sapiens) [compound 142]”, the “Peptide Exchange” value is listed as ““++” (≥20% = ++)”.

For “143 (QLLDTYFTL; listed as Homo sapiens) [compound 143]”, the “Peptide Exchange” value is given as ““+++” (≥50 = +++)”.

Turning to “145 (SALDTITTV; listed as Homo sapiens) [compound 145]”, the “Peptide Exchange” value was ““+++” (≥50 = +++)”.

Consider “146 (SIIEGPIIKL; listed as Homo sapiens) [compound 146]”, for which the “Peptide Exchange” value is ““+++” (≥50 = +++)”.

Regarding “147 (SILETVATL; listed as Homo sapiens) [compound 147]”, the “Peptide Exchange” value is on record as ““+++” (≥50 = +++)”.

In the case of “148 (SIVASLITV; listed as Homo sapiens) [compound 148]”, the “Peptide Exchange” value is on record as ““+++” (≥50 = +++)”.

For “149 (SLDNGGYYI; listed as Homo sapiens) [compound 149]”, the “Peptide Exchange” value was ““+++” (≥50 = +++)”.

In the case of “150 (SLFDQPLSII; listed as Homo sapiens) [compound 150]”, the “Peptide Exchange” value was ““+++” (≥50 = +++)”.

For “151 (SLFDSAYGA; listed as Homo sapiens) [compound 151]”, the “Peptide Exchange” value is on record as ““+++” (≥50 = +++)”.

Turning to “152 (SLIRILQTI; listed as Homo sapiens) [compound 152]”, the “Peptide Exchange” value was ““+++” (≥50 = +++)”.

Turning to “153 (SLLAELHVL; listed as Homo sapiens) [compound 153]”, the “Peptide Exchange” value is listed as ““+++” (≥50 = +++)”.

With “155 (SLMLEVPAL; listed as Homo sapiens) [compound 155]”, the “Peptide Exchange” value is ““+++” (≥50 = +++)”.

Take “156 (SLNIGDVQL; listed as Homo sapiens) [compound 156]”: the “Peptide Exchange” value is reported as ““+++” (≥50 = +++)”.

On to “157 (SLNIRDFTM; listed as Homo sapiens) [compound 157]”, for which the “Peptide Exchange” value is given as ““+++” (≥50 = +++)”.

With “158 (SLPEAPLDV; listed as Homo sapiens) [compound 158]”, the “Peptide Exchange” value was ““+++” (≥50 = +++)”.

“159 (SLQEEKLIYV; listed as Homo sapiens) [compound 159]”: the “Peptide Exchange” value was ““+++” (≥50 = +++)”.

For the substance “160 (SLSFLVPSL; listed as Homo sapiens) [compound 160]”, the “Peptide Exchange” value is ““+++” (≥50 = +++)”.

For the substance “161 (SMDDGMINV; listed as Homo sapiens) [compound 161]”, the “Peptide Exchange” value was ““+++” (≥50 = +++)”.

For the substance “162 (SMKDDLENV; listed as Homo sapiens) [compound 162]”, the “Peptide Exchange” value was ““++” (≥20% = ++)”.

Regarding “163 (SQLDISEPYKV; listed as Homo sapiens) [compound 163]”, the “Peptide Exchange” value was ““+++” (≥50 = +++)”.

Take “164 (SVHKGFAFV; listed as Homo sapiens) [compound 164]”: the “Peptide Exchange” value is ““+++” (≥50 = +++)”.

Take “165 (TLDDDLDTV; listed as Homo sapiens) [compound 165]”: the “Peptide Exchange” value is reported as ““++” (≥20% = ++)”.

Regarding “166 (TLDPNQVSL; listed as Homo sapiens) [compound 166]”, the “Peptide Exchange” value was ““++” (≥20% = ++)”.

For “167 (TLDTSKLYV; listed as Homo sapiens) [compound 167]”, the “Peptide Exchange” value is recorded as ““+++” (≥50 = +++)”.

Take “168 (YLLDQSFVM; listed as Homo sapiens) [compound 168]”: the “Peptide Exchange” value was ““++++” (≥75% = ++++)”.

Take “169 (TLLLGLTEV; listed as Homo sapiens) [compound 169]”: the “Peptide Exchange” value is ““+++” (≥50 = +++)”.

For “170 (TLTFRVETV; listed as Homo sapiens) [compound 170]”, the “Peptide Exchange” value is on record as ““+++” (≥50 = +++)”.

Consider “171 (TLVPPAALISI; listed as Homo sapiens) [compound 171]”, for which the “Peptide Exchange” value was ““+++” (≥50 = +++)”.

As for “172 (TLYDMLASI; listed as Homo sapiens) [compound 172]”, the “Peptide Exchange” value is recorded as ““+++” (≥50 = +++)”.

With “173 (TVIENIHTI; listed as Homo sapiens) [compound 173]”, the “Peptide Exchange” value is on record as ““++” (≥20% = ++)”.

In the case of “174 (VLAELPIIVV; listed as Homo sapiens) [compound 174]”, the “Peptide Exchange” value is ““+++” (≥50 = +++)”.

“175 (FTVPRVVAV; listed as Homo sapiens) [compound 175]”: the “Peptide Exchange” value is recorded as ““+++” (≥50 = +++)”.

Regarding “176 (VLAEQNIIPSA; listed as Homo sapiens) [compound 176]”, the “Peptide Exchange” value is listed as ““+++” (≥50 = +++)”.

Turning to “177 (VLDDRELLL; listed as Homo sapiens) [compound 177]”, the “Peptide Exchange” value is listed as ““+++” (≥50 = +++)”.

As to “178 (VLFFNVQEV; listed as Homo sapiens) [compound 178]”, the “Peptide Exchange” value is ““+++” (≥50 = +++)”.

In the case of “179 (VLLGLEMTL; listed as Homo sapiens) [compound 179]”, the “Peptide Exchange” value was ““+++” (≥50 = +++)”.

As to “180 (LLKDGPEIGL; listed as Homo sapiens) [compound 180]”, the “Peptide Exchange” value is ““++” (≥20% = ++)”.

As to “181 (VLLSIPFVSV; listed as Homo sapiens) [compound 181]”, the “Peptide Exchange” value was ““+++” (≥50 = +++)”.

Take “182 (VLLSVPGPPV; listed as Homo sapiens) [compound 182]”: the “Peptide Exchange” value was ““+++” (≥50 = +++)”.

As for “183 (VLMPTVYQQGV; listed as Homo sapiens) [compound 183]”, the “Peptide Exchange” value is ““+++” (≥50 = +++)”.

In the case of “184 (VLSHNLYTV; listed as Homo sapiens) [compound 184]”, the “Peptide Exchange” value is given as ““+++” (≥50 = +++)”.

Consider “185 (VMDDQRDLI; listed as Homo sapiens) [compound 185]”, for which the “Peptide Exchange” value is ““++” (≥20% = ++)”.

Turning to “186 (VMDPTKILI; listed as Homo sapiens) [compound 186]”, the “Peptide Exchange” value is recorded as ““++++” (≥75% = ++++)”.

As for “187 (VMDTHLVNI; listed as Homo sapiens) [compound 187]”, the “Peptide Exchange” value is on record as ““++++” (≥75% = ++++)”.

In the case of “188 (VMGDIPAAV; listed as Homo sapiens) [compound 188]”, the “Peptide Exchange” value was ““++” (≥20% = ++)”.

In the case of “189 (VMLEMTPEL; listed as Homo sapiens) [compound 189]”, the “Peptide Exchange” value is reported as ““+++” (≥50 = +++)”.

With “190 (VVMGTVPRL; listed as Homo sapiens) [compound 190]”, the “Peptide Exchange” value is given as ““+++” (≥50 = +++)”.

For “191 (YIFDGSDGGV; listed as Homo sapiens) [compound 191]”, the “Peptide Exchange” value is given as ““+++” (≥50 = +++)”.

For the substance “193 (YLDLSNNRL; listed as Homo sapiens) [compound 193]”, the “Peptide Exchange” value was ““+++” (≥50 = +++)”.

On to “194 (YLDNVLAEL; listed as Homo sapiens) [compound 194]”, for which the “Peptide Exchange” value is on record as ““++++” (≥75% = ++++)”.

These data come from patent US10064928B2, “Peptides and combination of peptides for use in immunotherapy against CLL and other cancers” (IMMATICS BIOTECHNOLOGIES GMBH, priority 2015, dated 2018).
